The source of these data is article PMC12788653 (PLOS Pathogens, 2025).

This data set concerns the molecule itself. Description: SEC. (In gel filtration, larger molecules generally elute earlier.)

B1: recombinant A/WSN/1933 (H1N1) NP, NΔ7NP with C-terminal His tag (WT) (natural protein)
chain: RSYEQMETDGERQNATEIRASVGKMIGGIGRFYIQMCTELKLSDYEGRLIQNSLTIERMVLSAFDERRNKYLEEHPSAGKDPKKTGGPIYRRVDGKWMRELILYDKEEIRRIWRQANNGDDATAGLTHMMIWHSNLNDATYQRTRALVRTGMDPRMCSLMQGSTLPRRSGAAGAAVKGVGTMVMELIRMIKRGINDRNFWRGENGRRTRIAYERMCNILKGKFQTAAQRAMVDQVRESRNPGNAEFEDLIFLARSALILRGSVAHKSCLPACVYGPAVASGYDFEREGYSLVGIDPFRLLQNSQVYSLIRPNENPAHKSQLVWMACHSAAFEDLRVSSFIRGTKVVPRGKLSTRGVQIASNENMETMESSTLELRSRYWAIRTRSGGNTNQQRASSGQISIQPTFSVQRNLPFDRPTIMAAFTGNTEGRTSDMRTEIIRLMESARPEDVSFQGRGVFELSDEKAASPIVPSFDMSNEGSYFFGDNAEEYDN
notes: also called WT NP; pET28a-NΔ7NP
Take B1: the binding result is “binds”.
